molecular target: T1, human LAP-TGFB1 Fc fusion (human); assay: BLI off-rate screen
T1 construct: also called human LAP-TGFβ1-Fc; human LAP-TGFβ-Fc isoform 1
Experimental: The Fab mutants including a positive control, 20E6 Fab, and a negative control Fab (Molecular Innovations, catalog HU-FAB-4510) were diluted to 200 nM in assay buffer and loaded to FAB2G sensors for 180 seconds followed by a one-hour incubation at room temperature in assay buffer to equilibrate the tips. The Fab loaded sensors were assessed for binding with 100 nM human LAP-TGFβ for 180 seconds followed by a 180 second dissociation phase in assay buffer on a ForteBio HTX (software version 9.0.0.66). Non-specific binding to the negative control Fab was subtracted and the binding sensorgrams were aligned to the start of the association phase on the X and Y axis. The Fab binding was fit with the 1:1 binding model, dissociation phase only, with local fitting using ForteBio Data Analysis 9.0 software.
Twenty-three variants containing a single tyrosine substitution in the light chain CDRs (at one of amino acid positions 24-31, 33, 34, 51-56, and 89-95 according to Kabat numbering scheme) and 21 similar heavy chain CDR variants (at amino acids positions 28-31, 33-35, 50-58 including 52a, 95, 96, 98, and 99 according to Kabat numbering scheme) were generated according to FIG. 1 and listed in Table 6 and their interactions with human LAP-TGFb1 were analyzed by ForteBio interferometry. […] In those sequences the VL is correct, even though these sequences are from the heavy chain. Thus, the VL_X ##Y refers to the position of the tyrosine mutation within the antibody, regardless of whether the sequence is a heavy or light chain.

T1 sequence (chain, as listed by the source limits assumed): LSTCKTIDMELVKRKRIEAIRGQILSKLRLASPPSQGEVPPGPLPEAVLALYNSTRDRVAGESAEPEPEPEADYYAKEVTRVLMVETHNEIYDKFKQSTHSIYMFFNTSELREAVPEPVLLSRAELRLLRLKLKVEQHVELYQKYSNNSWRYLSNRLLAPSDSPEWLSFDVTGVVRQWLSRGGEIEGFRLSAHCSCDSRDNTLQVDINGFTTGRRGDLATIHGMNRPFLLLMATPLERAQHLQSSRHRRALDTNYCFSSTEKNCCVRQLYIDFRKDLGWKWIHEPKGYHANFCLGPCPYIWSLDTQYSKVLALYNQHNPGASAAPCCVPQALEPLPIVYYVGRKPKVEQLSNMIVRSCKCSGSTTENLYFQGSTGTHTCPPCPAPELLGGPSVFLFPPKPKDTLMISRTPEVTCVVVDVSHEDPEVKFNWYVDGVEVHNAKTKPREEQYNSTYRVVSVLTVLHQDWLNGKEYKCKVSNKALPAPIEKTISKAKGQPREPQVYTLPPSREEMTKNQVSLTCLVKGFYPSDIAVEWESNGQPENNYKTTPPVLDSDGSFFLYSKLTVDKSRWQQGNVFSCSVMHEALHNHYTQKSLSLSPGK

Row | Binder | Binding response [nm] | Fold change [fold] | koff [s⁻¹] | binding result
1 | VH T30Y (69BIT) (Fab, V domains shown) VH: EVQLVQSGAEVKKPGASVKVSCKASGYTFYSYWMHWVRQAPGQGLEWMGRIDPQSGGIKYAQKFQGRATLTVDTSTSTAYMELSRLRSDDTAVYYCARWDYGGYFDVWGQGTLVTVSS VL: DIQMTQSPSSLSASVGDRVTITCRASQDITNYLNWYQQKPGKAVKLLIYYTSRLHSGVPSRFSGSGSGTDYTLTISSLQPEDFATYFCQQGDTLPWTFGQGTKLEIKR | 0.372 | 1.2 | 0.0365 | –
2 | VL G91Y (56BIT) (Fab, V domains shown) VH: EVQLVQSGAEVKKPGASVKVSCKASGYTFTSYWMHWVRQAPGQGLEWMGRIDPQSGGIKYAQKFQGRATLTVDTSTSTAYMELSRLRSDDTAVYYCARWDYGGYFDVWGQGTLVTVSS VL: DIQMTQSPSSLSASVGDRVTITCRASQDITNYLNWYQQKPGKAVKLLIYYTSRLHSGVPSRFSGSGSGTDYTLTISSLQPEDFATYFCQQYDTLPWTFGQGTKLEIKR | 0.044 | – | – | no binding (tested: 100 nM antigen)
3 | VL I29Y (43BIT) (Fab, V domains shown) VH: EVQLVQSGAEVKKPGASVKVSCKASGYTFTSYWMHWVRQAPGQGLEWMGRIDPQSGGIKYAQKFQGRATLTVDTSTSTAYMELSRLRSDDTAVYYCARWDYGGYFDVWGQGTLVTVSS VL: DIQMTQSPSSLSASVGDRVTITCRASQDYTNYLNWYQQKPGKAVKLLIYYTSRLHSGVPSRFSGSGSGTDYTLTISSLQPEDFATYFCQQGDTLPWTFGQGTKLEIKR | 0.071 | 1.6 | 0.0264 | –
4 | VL L54Y (51BIT) (Fab, V domains shown) VH: EVQLVQSGAEVKKPGASVKVSCKASGYTFTSYWMHWVRQAPGQGLEWMGRIDPQSGGIKYAQKFQGRATLTVDTSTSTAYMELSRLRSDDTAVYYCARWDYGGYFDVWGQGTLVTVSS VL: DIQMTQSPSSLSASVGDRVTITCRASQDITNYLNWYQQKPGKAVKLLIYYTSRYHSGVPSRFSGSGSGTDYTLTISSLQPEDFATYFCQQGDTLPWTFGQGTKLEIKR | 0.299 | 1 | 0.0405 | –
5 | VL H55Y (52BIT) (Fab, V domains shown) VH: EVQLVQSGAEVKKPGASVKVSCKASGYTFTSYWMHWVRQAPGQGLEWMGRIDPQSGGIKYAQKFQGRATLTVDTSTSTAYMELSRLRSDDTAVYYCARWDYGGYFDVWGQGTLVTVSS VL: DIQMTQSPSSLSASVGDRVTITCRASQDITNYLNWYQQKPGKAVKLLIYYTSRLYSGVPSRFSGSGSGTDYTLTISSLQPEDFATYFCQQGDTLPWTFGQGTKLEIKR | 0.265 | 1.1 | 0.0385 | –
6 | VH W95Y (88BIT) (Fab, V domains shown) VH: EVQLVQSGAEVKKPGASVKVSCKASGYTFTSYWMHWVRQAPGQGLEWMGRIDPQSGGIKYAQKFQGRATLTVDTSTSTAYMELSRLRSDDTAVYYCARYDYGGYFDVWGQGTLVTVSS VL: DIQMTQSPSSLSASVGDRVTITCRASQDITNYLNWYQQKPGKAVKLLIYYTSRLHSGVPSRFSGSGSGTDYTLTISSLQPEDFATYFCQQGDTLPWTFGQGTKLEIKR | 0.638 | 1 | 0.0425 | –
7 | VH W33Y (71BIT) (Fab, V domains shown) VH: EVQLVQSGAEVKKPGASVKVSCKASGYTFTSYYMHWVRQAPGQGLEWMGRIDPQSGGIKYAQKFQGRATLTVDTSTSTAYMELSRLRSDDTAVYYCARWDYGGYFDVWGQGTLVTVSS VL: DIQMTQSPSSLSASVGDRVTITCRASQDITNYLNWYQQKPGKAVKLLIYYTSRLHSGVPSRFSGSGSGTDYTLTISSLQPEDFATYFCQQGDTLPWTFGQGTKLEIKR | 0.77 | 1.8 | 0.023 | –
8 | VL D92Y (57BIT) (Fab, V domains shown) VH: EVQLVQSGAEVKKPGASVKVSCKASGYTFTSYWMHWVRQAPGQGLEWMGRIDPQSGGIKYAQKFQGRATLTVDTSTSTAYMELSRLRSDDTAVYYCARWDYGGYFDVWGQGTLVTVSS VL: DIQMTQSPSSLSASVGDRVTITCRASQDITNYLNWYQQKPGKAVKLLIYYTSRLHSGVPSRFSGSGSGTDYTLTISSLQPEDFATYFCQQGYTLPWTFGQGTKLEIKR | 0.046 | – | – | no binding (tested: 100 nM antigen)
9 | VL D28Y (42BIT) (Fab, V domains shown) VH: EVQLVQSGAEVKKPGASVKVSCKASGYTFTSYWMHWVRQAPGQGLEWMGRIDPQSGGIKYAQKFQGRATLTVDTSTSTAYMELSRLRSDDTAVYYCARWDYGGYFDVWGQGTLVTVSS VL: DIQMTQSPSSLSASVGDRVTITCRASQYITNYLNWYQQKPGKAVKLLIYYTSRLHSGVPSRFSGSGSGTDYTLTISSLQPEDFATYFCQQGDTLPWTFGQGTKLEIKR | 0.207 | 1.3 | 0.0318 | –
10 | VL A25Y (39BIT) (Fab, V domains shown) VH: EVQLVQSGAEVKKPGASVKVSCKASGYTFTSYWMHWVRQAPGQGLEWMGRIDPQSGGIKYAQKFQGRATLTVDTSTSTAYMELSRLRSDDTAVYYCARWDYGGYFDVWGQGTLVTVSS VL: DIQMTQSPSSLSASVGDRVTITCRYSQDITNYLNWYQQKPGKAVKLLIYYTSRLHSGVPSRFSGSGSGTDYTLTISSLQPEDFATYFCQQGDTLPWTFGQGTKLEIKR | 0.043 | – | – | no binding (tested: 100 nM antigen)
11 | VL L33Y (46BIT) (Fab, V domains shown) VH: EVQLVQSGAEVKKPGASVKVSCKASGYTFTSYWMHWVRQAPGQGLEWMGRIDPQSGGIKYAQKFQGRATLTVDTSTSTAYMELSRLRSDDTAVYYCARWDYGGYFDVWGQGTLVTVSS VL: DIQMTQSPSSLSASVGDRVTITCRASQDITNYYNWYQQKPGKAVKLLIYYTSRLHSGVPSRFSGSGSGTDYTLTISSLQPEDFATYFCQQGDTLPWTFGQGTKLEIKR | 0.095 | 1 | 0.0413 | –

Now from value to binder:

Row | Binding response [nm] | Fold change [fold] | koff [s⁻¹] | binding result | Binder
12 | 0.308 | 0.7 | 0.0571 | – | VL L94Y (59BIT) (Fab, V domains shown) VH: EVQLVQSGAEVKKPGASVKVSCKASGYTFTSYWMHWVRQAPGQGLEWMGRIDPQSGGIKYAQKFQGRATLTVDTSTSTAYMELSRLRSDDTAVYYCARWDYGGYFDVWGQGTLVTVSS VL: DIQMTQSPSSLSASVGDRVTITCRASQDITNYLNWYQQKPGKAVKLLIYYTSRLHSGVPSRFSGSGSGTDYTLTISSLQPEDFATYFCQQGDTYPWTFGQGTKLEIKR
13 | 0.04 | – | – | no binding (tested: 100 nM antigen) | VL Q90Y (55BIT) (Fab, V domains shown) VH: EVQLVQSGAEVKKPGASVKVSCKASGYTFTSYWMHWVRQAPGQGLEWMGRIDPQSGGIKYAQKFQGRATLTVDTSTSTAYMELSRLRSDDTAVYYCARWDYGGYFDVWGQGTLVTVSS VL: DIQMTQSPSSLSASVGDRVTITCRASQDITNYLNWYQQKPGKAVKLLIYYTSRLHSGVPSRFSGSGSGTDYTLTISSLQPEDFATYFCQYGDTLPWTFGQGTKLEIKR
14 | 0.221 | 1 | 0.0436 | – | VL N34Y (47BIT) (Fab, V domains shown) VH: EVQLVQSGAEVKKPGASVKVSCKASGYTFTSYWMHWVRQAPGQGLEWMGRIDPQSGGIKYAQKFQGRATLTVDTSTSTAYMELSRLRSDDTAVYYCARWDYGGYFDVWGQGTLVTVSS VL: DIQMTQSPSSLSASVGDRVTITCRASQDITNYLYWYQQKPGKAVKLLIYYTSRLHSGVPSRFSGSGSGTDYTLTISSLQPEDFATYFCQQGDTLPWTFGQGTKLEIKR
15 | 0.035 | – | – | no binding (tested: 100 nM antigen) | VL Q89Y (54BIT) (Fab, V domains shown) VH: EVQLVQSGAEVKKPGASVKVSCKASGYTFTSYWMHWVRQAPGQGLEWMGRIDPQSGGIKYAQKFQGRATLTVDTSTSTAYMELSRLRSDDTAVYYCARWDYGGYFDVWGQGTLVTVSS VL: DIQMTQSPSSLSASVGDRVTITCRASQDITNYLNWYQQKPGKAVKLLIYYTSRLHSGVPSRFSGSGSGTDYTLTISSLQPEDFATYFCYQGDTLPWTFGQGTKLEIKR
16 | 0.344 | 1.8 | 0.0241 | – | VL N31Y (45BIT) (Fab, V domains shown) VH: EVQLVQSGAEVKKPGASVKVSCKASGYTFTSYWMHWVRQAPGQGLEWMGRIDPQSGGIKYAQKFQGRATLTVDTSTSTAYMELSRLRSDDTAVYYCARWDYGGYFDVWGQGTLVTVSS VL: DIQMTQSPSSLSASVGDRVTITCRASQDITYYLNWYQQKPGKAVKLLIYYTSRLHSGVPSRFSGSGSGTDYTLTISSLQPEDFATYFCQQGDTLPWTFGQGTKLEIKR
17 | 0.427 | 1.8 | 0.0229 | – | VL Q27Y (41BIT) (Fab, V domains shown) VH: EVQLVQSGAEVKKPGASVKVSCKASGYTFTSYWMHWVRQAPGQGLEWMGRIDPQSGGIKYAQKFQGRATLTVDTSTSTAYMELSRLRSDDTAVYYCARWDYGGYFDVWGQGTLVTVSS VL: DIQMTQSPSSLSASVGDRVTITCRASYDITNYLNWYQQKPGKAVKLLIYYTSRLHSGVPSRFSGSGSGTDYTLTISSLQPEDFATYFCQQGDTLPWTFGQGTKLEIKR
18 | 0.015 | – | – | no binding (tested: 100 nM antigen) | VL P95Y (60BIT) (Fab, V domains shown) VH: EVQLVQSGAEVKKPGASVKVSCKASGYTFTSYWMHWVRQAPGQGLEWMGRIDPQSGGIKYAQKFQGRATLTVDTSTSTAYMELSRLRSDDTAVYYCARWDYGGYFDVWGQGTLVTVSS VL: DIQMTQSPSSLSASVGDRVTITCRASQDITNYLNWYQQKPGKAVKLLIYYTSRLHSGVPSRFSGSGSGTDYTLTISSLQPEDFATYFCQQGDTLYWTFGQGTKLEIKR
